Patent US20190100588A1 (VISTERRA, published 2019)
Residue numbers refer to the chain shown, from its start.

What was measured:
[1] = molecular target: T1, Peptide 2a (human); test: peptide binding ELISA
T1 construct: also called Pep2a
T1 peptide: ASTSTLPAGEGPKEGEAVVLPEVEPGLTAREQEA
Description: (§1) As above, the monoclonal antibodies were tested for binding to a series of CD138 peptides in four-fold serial dilutions starting at 1 μg/mL. […] HRP-conjugated anti-human IgG-Fc antibody (1:5000 dilution) was used for detection. Antibody B-B4 was also tested as a reference. […] Reference antibody B-B4 only bound to Peptide 2a.

[2] = molecular target: T2, Peptide 6B (human, biotin at the amino terminus); test: bio-layer interferometry, biotinylated peptide
T2 construct: also called Pep6b
T2 peptide: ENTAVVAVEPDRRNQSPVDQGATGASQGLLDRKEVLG

[3] = molecular target: T3, mutated CD138 Clone 4 (human, UniProt P18827 23-310); test: staining of Expi293 cells expressing the CD138 variant
T3 construct: Leu107, Pro108, Glu109 mutated to Ala; Expressed on Expi293 cells
T3 chain: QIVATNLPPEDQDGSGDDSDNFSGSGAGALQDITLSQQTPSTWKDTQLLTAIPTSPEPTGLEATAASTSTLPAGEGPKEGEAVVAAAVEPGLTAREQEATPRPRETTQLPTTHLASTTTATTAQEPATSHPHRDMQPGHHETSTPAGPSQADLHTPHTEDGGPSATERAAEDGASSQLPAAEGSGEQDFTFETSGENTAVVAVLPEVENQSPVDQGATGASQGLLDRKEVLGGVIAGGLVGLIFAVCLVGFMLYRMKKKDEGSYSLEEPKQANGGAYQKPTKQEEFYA

[4] = molecular target: T4, mutated CD138 Clone 2 (human, UniProt P18827 23-310); test: as above
T4 construct: Leu107, Pro108, Glu109 mutated to Ala; Expressed on Expi293 cells
T4 chain: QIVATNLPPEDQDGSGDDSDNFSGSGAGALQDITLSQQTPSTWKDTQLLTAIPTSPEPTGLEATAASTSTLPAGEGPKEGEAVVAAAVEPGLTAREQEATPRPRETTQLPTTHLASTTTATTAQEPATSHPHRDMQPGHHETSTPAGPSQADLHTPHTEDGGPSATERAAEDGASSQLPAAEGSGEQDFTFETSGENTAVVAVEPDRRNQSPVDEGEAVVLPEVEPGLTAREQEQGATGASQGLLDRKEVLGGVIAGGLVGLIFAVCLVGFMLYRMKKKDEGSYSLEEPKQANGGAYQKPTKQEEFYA

[5] = molecular target: T5, mutated CD138 Clone 5 (human, UniProt P18827 23-310); test: as above
T5 construct: Leu107, Pro108, Glu109 mutated to Ala; Expressed on Expi293 cells
T5 chain: T3 chain with L204E, E206D, V207R, E208R, S211L, V213E, D214V, Q215E

[6] = molecular target: T6, mutated CD138 Clone 1 (human, UniProt P18827 23-310); test: as above
T6 construct: Leu107, Pro108, Glu109 of the original site mutated to Ala; Expressed on Expi293 cells
T6 chain: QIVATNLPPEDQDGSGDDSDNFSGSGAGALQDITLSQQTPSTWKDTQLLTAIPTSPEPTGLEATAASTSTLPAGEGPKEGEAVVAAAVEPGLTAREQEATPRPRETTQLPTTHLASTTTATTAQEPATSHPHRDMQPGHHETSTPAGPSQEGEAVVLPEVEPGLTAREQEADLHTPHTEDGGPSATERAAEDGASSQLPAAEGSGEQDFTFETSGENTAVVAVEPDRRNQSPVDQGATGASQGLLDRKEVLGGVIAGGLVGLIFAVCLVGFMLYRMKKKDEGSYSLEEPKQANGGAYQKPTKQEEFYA

[7] = molecular target: T7, Pep5 (human); test: peptide binding ELISA
T7 construct: also called Peptide 5
T7 peptide: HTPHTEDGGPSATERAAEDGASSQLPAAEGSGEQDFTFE
Description: as §1

[8] = molecular target: T8, recombinant CD138 extracellular domain (soluble CD138) (human, UniProt P18827 23-250); test: ELISA, recombinant CD138 extracellular domain
T8 construct: also called soluble CD138 extracellular domain; biotinylated CD138
T8 sequence: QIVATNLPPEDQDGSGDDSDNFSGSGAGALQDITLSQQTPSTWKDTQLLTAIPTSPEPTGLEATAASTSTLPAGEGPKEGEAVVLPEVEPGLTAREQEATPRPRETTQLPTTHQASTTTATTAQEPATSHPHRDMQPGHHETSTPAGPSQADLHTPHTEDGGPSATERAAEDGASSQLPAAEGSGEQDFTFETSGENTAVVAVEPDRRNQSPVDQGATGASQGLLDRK
Description: (§2) Antibody B-B4 was included as a reference. Briefly, the monoclonal antibodies were tested for binding to recombinant CD138 extracellular domain consisting of amino acids 23-254 of human CD138, in four-fold serial dilutions starting at 1 μg/mL. HRP-conjugated anti-human IgG-Fc antibody (1:5000 dilution) was used for detection.

[9] = molecular target: T9, Pep6 (human); test: peptide binding ELISA
T9 construct: also called Peptide 6; Peptide-6
T9 peptide: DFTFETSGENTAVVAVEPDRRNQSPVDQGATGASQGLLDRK
Description: as §1

[10] = molecular target: T8, recombinant CD138 extracellular domain …; test: ELISA, soluble CD138
Description: as §2

[11] = molecular target: T10, cell surface CD138 (human CD138) (human, UniProt P18827 23-310); test: flow cytometry, U266 cells
T10 construct: whole, on cells; also called membrane CD138
T10 sequence (looked up): T3 chain with A85L, A86P, A87E, L204E, E206D, V207R, E208R
Description: (§3) Binding of anti-CD138 antibodies to CD138 was tested by flow cytometry binding assay. Multiple myeloma cell lines RPMI 8226 (ATCC) and U266 (ATCC) were grown in RPMI1640 with 10% FBS. On the day of experiment, 0.25×10⁶ cells were washed with FACS buffer (PBS+0.5% BSA) and incubated with dilution series of anti-CD138 antibodies (starting 10 ug/ml) or hybridoma supernatants (starting with undiluted supernatant) for 30 min at 4° C. followed by incubation with goat-anti-human/mouse conjugated APC antibodies (BioLegend) for 30 min at 4° C. Fluorescence was detected using flow cytometer.
(§4) The afucosylated antibody variants were then tested for capacity to induce ADCC, as described above.

[12] = molecular target: T11, Peptide 6E (human, biotin at the amino terminus); test: bio-layer interferometry, biotinylated peptide
T11 construct: also called Pep6e
T11 peptide: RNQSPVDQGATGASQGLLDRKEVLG

[13] = molecular target: T12, Peptide 2C (human, biotin at the amino terminus); test: bio-layer interferometry, biotinylated peptide
T12 construct: also called Pep2c
T12 peptide: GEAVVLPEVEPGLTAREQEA

[14] = molecular target: T9, Pep6; test: ELISA (FIG. 18C)
[15] = molecular target: T10, cell surface CD138 (human CD138); test: flow cytometry, U266 cells, afucosylated antibody
Description: as §3, §4

[16] = molecular target: T1, Peptide 2a; test: ELISA (FIG. 18B)
[17] = molecular target: T8, recombinant CD138 extracellular domain …; test: ELISA (FIG. 18A)
[18] = molecular target: T2, Peptide 6B; test: ELISA with captured antibody (FIG. 21); also bio-layer interferometry (FIG. 22A)
Description: Briefly, biotinylated peptides (Peptides 2A, 2D, 6B, and 6F; sequences shown in FIG. 22C) were used at 50 nM and captured on streptavidin capture biosensors. Antibodies were then run over the captured peptides at concentrations of 25 nM to 6.25 nM.

B1: antibody B-B4 (antibody, V domains shown)
VH: QVQLQQSGSELMMPGASVKISCKATGYTFSNYWIEWVKQRPGHGLEWIGEILPGTGRTIYNEKFKGKATFTADISSNTVQMQLSSLTSEDSAVYYCARRDYYGNFYYAMDYWGQGTSVTVSS
VL: DIQMTQSTSSLSASLGDRVTISCSASQGINNYLNWYQQKPDGTVELLIYYTSTLQSGVPSRFSGSGSGTDYSLTISNLEPEDIGTYYCQQYSKLPRTFGGGTKLEIK
notes: detected with anti-human IgG-Fc; afucosylated and biotinylated versions also used; also called B-B4-IgG1; MAb B-B4
Q: Does B1 bind [1]?
A: binds

Q: Does B1 bind [2]?
A: no binding

Q: Does B1 bind [3]?
A: binds

Q: Does B1 bind [4]?
A: binds

Q: Does B1 bind [5]?
A: binds

Q: Does B1 bind [6]?
A: binds

B2: antibody CD002 (antibody, V domains shown)
VH: QVQLQQPGAELVKPGASVKLSCKASGFSFITYWMNWIKQRPGRGLEWIGRIHPSDSATQYNQKFKTKATLTVDKSSSTAYIQLSSLTSEDSAVYYCARSTEGAHWGQGTLVTVSA
VL: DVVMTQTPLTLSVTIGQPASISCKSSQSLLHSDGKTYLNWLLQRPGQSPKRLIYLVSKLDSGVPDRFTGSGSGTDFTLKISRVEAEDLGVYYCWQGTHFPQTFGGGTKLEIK
Q: Does B2 bind [7]?
A: binds

Q: Does B2 bind [8]?
A: binds

B3: antibody 1610 (antibody, V domains shown)
VH: QVQLHQPGTSLVKPGASVKLSCKASGYNFSSYYMHWVKQRPGQGLEWIGTIHPSDSTTNCNQKFKGKATLTVDKSSRTAYMQLNSLTFEDSAVYYCANFVYWGQGTSVTVSS
VL: DIVITQDELSNPVTSGDSVSISCRSSKSLLYKDGKTYLNWFLQRPGQSPQLLIYVVSTRASGVSDRFSGSGSGTDFTLEISRVKAEDVGVYYCQQLVEYPYTFGGGTKLEIK
notes: Chimeric monoclonal antibody, murine variable regions and human IgG1
Q: Does B3 bind [9]?
A: binds

Q: Does B3 bind [1]?
A: binds

Q: And the EC50 [10]?
A: 0.394 µg/mL

Q: And the EC50 [11]?
A: 0.0019 µg/mL

Q: Does B3 bind [12]?
A: no binding

Q: Does B3 bind [13]?
A: binds

Q: Does B3 bind [2]?
A: binds

B4: antibody 2810 (antibody, V domains shown)
VH: B3 VH with N28S, C60Y
VL: B3 VL
Q: Does B4 bind [14]?
A: binds

Q: Does B4 bind [15]?
A: binds

Q: Does B4 bind [16]?
A: binds

Q: Does B4 bind [17]?
A: binds

Q: Does B4 bind [18]?
A: binds
